The values below come from patent US20140271660A1 (Bayer, published 2014).

For the experiment, the target named is T1, human antithrombin β complexed with heparin (ATβH) (human, UniProt P01008 33-464, lacks glycosylation at Asn135 (β glyco-isoform); complexed with heparin; biotinylated on surface lysines for panning and ELISA).
T1 construct: mature; heparin is not a protein; also called human ATβH; hATβH
The experiment in a line: panning and screening of a human antibody library against human ATβ in complex with heparin.

T1 sequence (P01008 33-464, one chain of several): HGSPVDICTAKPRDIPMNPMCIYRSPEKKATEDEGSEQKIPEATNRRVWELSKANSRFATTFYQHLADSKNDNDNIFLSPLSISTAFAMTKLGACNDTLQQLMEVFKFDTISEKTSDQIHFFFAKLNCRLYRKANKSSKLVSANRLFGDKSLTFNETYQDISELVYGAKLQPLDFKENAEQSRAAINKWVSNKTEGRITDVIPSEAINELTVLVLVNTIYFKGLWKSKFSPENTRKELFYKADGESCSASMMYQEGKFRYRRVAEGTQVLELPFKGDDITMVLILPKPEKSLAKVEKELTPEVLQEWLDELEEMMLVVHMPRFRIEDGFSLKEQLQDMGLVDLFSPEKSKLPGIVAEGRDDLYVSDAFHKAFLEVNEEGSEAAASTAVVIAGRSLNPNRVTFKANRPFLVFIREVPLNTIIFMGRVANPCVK
Description: A four-arm panning strategy was designed to discover Fabs specifically against ATβH from a human Fab library (Dyax Fab310). The library was first depleted with biotinylated heparin/Fondaparinux-bound ATα and biotinylated ATα and then was panned against heparin/Fondaparinux-bound ATβ and biotinylated ATβ on streptavidin beads, respectively. For each round of panning, the heparin-bound ATα (ATαH) was included in the binding buffer as a competitor. To keep hATβ in active conformation (heparin bound form), heparin was added to the wash buffer in all three rounds of panning. After panning, pooled clones were screened for hATβ and hATβH specific binding and counter-screened for hATα by ELISA. These clones were also examined for differential binding to rabbit ATβ over rabbit ATα. […] Positive hits (Fabs) were reformatted into IgG1, expressed in HEK293 cells and purified by protein-A column. These purified IgG1s were extensively tested in AT-depleted human plasma and hemA patient plasma for TGA assay (Thrombin Generation Assay) and dPT (diluted Prothrombin Time) assay to measure the clotting time.

B1: TPP2009 hIgG1 (antibody, V domains shown)
VH: EVQLLESGGGLVQPGGSLRLSCAASGFTFSAYRMGWVRQAPGKGLEWVSRIYSSGGRTRYADSVKGRFTISRDNSKNTLYLQMNSLRAEDTAVYYCAREKASDLSGSFSEALDYWGQGTLVTVSS
VL: AQSVLTQDPAVSVALGQTVRITCQGDSLRSYYASWYQQKPGQAPVLVIYGKNNRPSGIPDRFSGSSSGNTASLTITGAQAEDEADYYCNSRDSSGNHLVFGGGTKLTVLG
As for B1, the binding result is given as “binds”.
